The record followed here is publication PMC10968091, “Crystallization of Ethylene Plant Hormone Receptor—Screening for Structure” (Biomolecules, 2024).

This data set deals with the molecule itself. The data set can be described thus: SDS-PAGE and Western blot; IMAC-purified receptor constructs on SDS-PAGE (colloidal Coomassie) and Western blot (anti-GFP-HRP for ETR2^1-186 mT2, anti-His-HRP for the others); SDS-stable dimers seen beside monomers.

B1: ETR1^1-157 mT2 (domain or fragment, Arabidopsis thaliana, UniProt P49333 1-157, looked up)
chain: MEVCNCIEPQWPADELLMKYQYISDFFIAIAYFSIPLELIYFVKKSAVFPYRWVLVQFGAFIVLCGATHLINLWTFTTHSRTVALVMTTAKVLTAVVSCATALMLVHIIPDLLSVKTRELFLKNKAAELDREMGLIRTQEETGRHVRMLTHEIRSTL
notes: Ethylene response 1 (ETR1), Arabidopsis thaliana, residues 1-157 (aa 158-738 removed); transmembrane domain; From pGEX4T-1; also called ETR1^1-157 mT2 10x His; source: E. coli C41(DE3)∆(ompF-acrAB), purified (IMAC); not shown: His10, C-terminal, kept
As to B1, the binding result is “binds”.

B2: ETR1^1-407 (domain or fragment, Arabidopsis thaliana, UniProt P49333 1-407, looked up)
chain: MEVCNCIEPQWPADELLMKYQYISDFFIAIAYFSIPLELIYFVKKSAVFPYRWVLVQFGAFIVLCGATHLINLWTFTTHSRTVALVMTTAKVLTAVVSCATALMLVHIIPDLLSVKTRELFLKNKAAELDREMGLIRTQEETGRHVRMLTHEIRSTLDRHTILKTTLVELGRTLALEECALWMPTRTGLELQLSYTLRHQHPVEYTVPIQLPVINQVFGTSRAVKISPNSPVARLRPVSGKYMLGEVVAVRVPLLHLSNFQINDWPELSTKRYALMVLMLPSDSARQWHVHELELVEVVADQVAVALSHAAILEESMRARDLLMEQNVALDLARREAETAIRARNDFLAVMNHEMRTPMHAIIALSSLLQETELTPEQRLMVETILKSSNLLATLMNDVLDLSRLED
notes: Ethylene response 1 (ETR1), Arabidopsis thaliana, residues 1-407; From pETEV16b; also called AtETR1^1-407; source: E. coli C41(DE3)∆(ompF-acrAB), purified (IMAC); not shown: His10, N-terminal, kept
Turning to B2, the binding result is on record as “binds”.

B3: ETR2^1-186 mT2 (domain or fragment, Arabidopsis thaliana, UniProt Q0WPQ2 1-186, looked up)
chain: MVKEIASWLLILSMVVFVSPVLAINGGGYPRCNCEDEGNSFWSTENILETQRVSDFLIAVAYFSIPIELLYFVSCSNVPFKWVLFEFIAFIVLCGMTHLLHGWTYSAHPFRLMMAFTVFKMLTALVSCATAITLITLIPLLLKVKVREFMLKKKAHELGREVGLILIKKETGFHVRMLTQEIRKSL
notes: Ethylene response 2 (ETR2), Arabidopsis thaliana, residues 1-186 (aa 187-773 removed); transmembrane domain; From pGEX4T-1; The plasmid name and the methods put mT2 next to the C-terminal 10x His-tag; also called ETR2 (aa 1-186); ETR2^1-186 mT2 10x His; source: E. coli C41(DE3)∆(ompF-acrAB), purified (IMAC); not shown: His10, C-terminal, kept
For B3, the binding result is reported as “binds”.

B4: ETR1^1-316 (domain or fragment, Arabidopsis thaliana, UniProt P49333 1-316, looked up)
chain: MEVCNCIEPQWPADELLMKYQYISDFFIAIAYFSIPLELIYFVKKSAVFPYRWVLVQFGAFIVLCGATHLINLWTFTTHSRTVALVMTTAKVLTAVVSCATALMLVHIIPDLLSVKTRELFLKNKAAELDREMGLIRTQEETGRHVRMLTHEIRSTLDRHTILKTTLVELGRTLALEECALWMPTRTGLELQLSYTLRHQHPVEYTVPIQLPVINQVFGTSRAVKISPNSPVARLRPVSGKYMLGEVVAVRVPLLHLSNFQINDWPELSTKRYALMVLMLPSDSARQWHVHELELVEVVADQVAVALSHAAILEES
notes: From pETEV16b; also called AtETR1^1-316; ETR1 (aa 1-316); source: E. coli C41(DE3)∆(ompF-acrAB), purified (IMAC); not shown: His10, N-terminal, kept
As for B4, the binding result is reported as “binds”.
